B1: GAR11 (antibody, V domains shown)
VH: EVQLVQSGTEVKKPGSSVKVSCEASGGTFSKYAITWVRQAPGQGLEWMGGIIPIFGTANYAQKFQDRVKITADEITSIAYMELNSLSSEDTAVYYCARDNRGRGFGEILSYYYGMDVWGQGTTVTVSS
VL: SALTQPASVSGSPGQSITISCTGTSSDVGGYNYVSWYQQHPGKAPKLMIYDVATRPSGVSDRFSGSKSGNTASLTISGLQAEDEADYYCSSYTSSNTLAFGGGTKLTVL
B2: GAR13 (antibody, V domains shown)
VH: EVQLVESGGGLVQPGGSLRLSCAASGFTFSNYDMHWVRQVTGKGLEWVSLIGTSGDTYYPGSVKGRFTISRDNAKNSLYLQMNSLRADDTAVYYCVRAAFDDHNIYSWFDSWGQGTLVTVSS
VL: DIQMTQSPSSLSASVGDRVTITCRASQSIGRYLNWYQQKPGKAPKLLIYTASSLQSGVPSRFSGSGSGTEFTLTISSLQPEDFATYYCQQSYNIPPLTFGGGTKVEIK
B3: GAR16 (antibody, V domains shown)
VH: EVQLVESGGGVVQPGGSLRLSCAASGFTFSNYDMHWVRQATGKGLEWVSAIGTAGDTYYPDSVKGRFTISRDNAKNSLYLQMNSLRAEDTAVYYCTRVVHSSDWTSWSAGIHNWFDSWGQGTLVTVSS
VL: DIVMTQSPSSLSASVGDRVSITCRTSQSIRTYLNWYQQKPGKAPKLLIYASSSLQSGVPSRFSGSGSGTDFTLSISSLQPEDFATYYCQQSYSMPPWTFGQGTKLEIK
B4: GAR20 (antibody, V domains shown)
VH: QVQLQQWGAGLLKPSETLSLTCAVYGGSFSDFYWSWIRQPPGKGLEWIGQIDHSGSPNYNPSLKSRVTMSVDTSKNHFSLRLTSMTAADTAVYYCAKGPRYGSGSFDPLGQGTLVTVSS
VL: SYELTQPPSVSVAPGQTARITCGGDNIGSKTVHWYQQKPGQAPVLVVYDDGDRPSGIPERFSGSNPGNTATLTISRVEAGDEADYYCQVWDSSSDSVVFGGGTELTVL
B5: GAR01 (antibody, V domains shown)
VH: QVQLVQSEGGVVQPGRSLRLSCTASGFTFSSYGMHWVRQAPGKGLEWVALISYDGSDKYYADSVKGRFTISRDNSKNTLYLQMNSLRPEDTAVFYCAKGGWYGSSSGFDYWGQGTLVTVSS
VL: DIQMTQSPSSLSASVGDRVTITCQASQDISNYLNWYQQKPGKAPKLLIYDASNLETGVPSRFSGSGSGTDFIFTISSLQPEDIATYYCQQYHDVPRTFGQGTKVEIK
B6: GAR14 (antibody, V domains shown)
VH: EVQLVESGGGLVQPGGSLRLSCAASGFTFSRYDMHWVRQTTGKGLEWVSAIGTAGDTYYPDSVKGRFTISRENAKNSLHLQMNSLRVGDTAVYFCARAVDCSDISCYSNWYFDLWGRGTLVTVSS
VL: DIQLTQSPSSLSASVGDRVTITCRASQTISSFLNWYQQKPGKAPHLLIYAASSLQSGVPSRFSGSGSGTDFTLTITNLQPEDFATYYCQQSYSTPPITFGQGTRLEIK
B7: GAR09 (antibody, V domains shown)
VH: EVQLVESGGGLVQPGGSLRLSCAASGFTVSYNYMSWVRQAPGKGLEWVSLIYSGGSTYYADSVKGRFTISRDSSKNTLYLQMNSLRVEDTAVYYCAREVPSRSGWSGGQGTLVTVSS
VL: DIVMTQSPSSLSASVGDRVTITCQASQDMNKYLNWYQQKPGKAPKLLIYDASNLETGVPSRFSGSGSGTNFTFTISSLQPEDIATYYCQQYDNLPPVFGPGTKVEIK
B8: GAR04 (antibody, V domains shown)
VH: QVQLVQSGAEVKKSGASVKVSCKASGYTFTGYHMHWVRQAPGQGLEWMGWINPKSDGTNSAQKFQGRVTMTRDTSISTAYMELSRLRSDDTAVYYCARLAVREYYDNSGFYRKTTDAFDLWGQGTMVTVSS
VL: DIVMTQSPDSLAVSLGERATINCKSSQSVLYNSNNKNYLAWYQQKPGQPPKLLIYWASTRESGVPDRFSGSGSGTDFTLTINSLQAEDVAVYYCQQYSITTPPITFGQGTRLEIK
B9: GAR07 (antibody, V domains shown)
VH: EVQLVQSGGGLVQPGGSLRLSCAASEFIVSSNYMSWVRQAPGKGLEWVSVIYSGGSTFYADSVKGRFTISRDNSKNTLHLQMNSLRVEDTAVYYCARDRGDRFDYWGQGTLVTVSS
VL: not shown
B10: GAR18 (antibody, V domains shown)
VH: QVQLQESGPGLVKPSETLSLTCTVSGGSISDYYWSWIRQPPGKGLEWIGYIHGSGGTNYNPSLKSRVTILVDTSKNELSLKLSSVTTADTAVYYCARDDMISGLGYYGMDVWGQGTTVTVSS
VL: EIVMTQSPATLSLSPGERVTLSCRASQSVSSYLAWYQQKPGQAPRLLIYDASNRATGIPARFSGSGSGTDFTLTISSLEPEDFAVYYCQQRSNWPSTFGPGTKVDIK
B11: GAR06 (antibody, V domains shown)
VH: QVTLRESGPALVKPTQTLTLTCTFSGFSVSSAGMCVSWIRQPPGKALEWLARIDWDDDKYYSTSLRTRLTISTDTSKNQVVLTMTNMDPVDTATYYCARTTMTTSYYFDSWGQGTLVTVSS
VL: QSALTQPRSVSGSPGQSVTISCTGTSSDVGGYDYVSWYQHHPGKAPKVVLYDVTKRPSGVPDRFSGSKSGNTASLTISGLQAEDEADYYCCSYAGSYAGVFGTGTKVTVL
B12: GAR15 (antibody, V domains shown)
VH: EVQLVESGGGLVQPGGSLRLSCAASGLTVSSNYMSWVRQAPGKGLEWVSVIYSGGSTFYADSVKGRFTISRHNSKNTLYLQMNSLRGDDTAVYYCARDLIYYGMDVWGQGTTVTVSS
VL: DIVMTQSPSSLSASVGDRVTITCRASQGISSSLAWYQQNPGKPPKLLIYAASTLQSGVPSRFSGSGSGTDFTLTISSLQPEDFATYYCQQLNSDLYTFGQGTKVEIK
B13: GAR17 (antibody, V domains shown)
VH: EVQLVESGGGLGQPGGSLRLSCAASGFNFSNYAMSWVRQAPGKGLEWISTVGGSGDSTYYADSVKGRFTISIDNSKNRLYLQMNSLRSEDTAVYYCAKELAVMPPYFYYYAMDVWGQGTTVTVSS
VL: QPVLTQPPSASGTPGQRVTISCSGTTSNVGSTYVYWYQQLPGTAPKLLIYRYNQRPSGVPDRFSGSKSGTSASLVISGLRSDDEAVYYCATWDDSRHVVFGGGTKLTVL
B14: 10G4 Fab (Fab, V domains shown)
VH: QVQLVESGGGVVQPGRSLRLSCAASGFTFSSYGMHWVRQAPGKGLEWVAVIWYDGSDKYYADSVKGRFTISRDNSKNTLYLQINSLRAEDTAMYYCAREATAGFDYWGQGNLVTVSS
VL: NIQMTQSPSAMSASVGDRVTITCRARQDISSYLAWFQQKPGKVPKHLIYAASTLLSGVPSRFSGSGSGTEFTLTISSLQPEDFATYYCLQHNSYPYTFGQGTKLEIN
notes: also called additional antibody Fab (10G4)
B15: GAR12 Fab (Fab, V domains shown)
VH: EVQLVQSGGGLVQPGGSLRLSCAASGFTFSSYAMSWVRQAPGKGLEWVLSISGSGGSTYYADSVKGRFTISIDNSKKTVYLQMNSLRAEDTAVYYCAKSGEQQLVQAEYFHHWGQGTLVTVSS
VL: DIQMTQSPSTLSASVGDRVTITCRASQSIGRWLAWYQQKPGKAPKLLIYDASSLESGVPSRFSGSGFGTEFTLTISSLQPDDFATYYCQQCDSLLTFGGGTKLEIK
notes: also called GAR12 Fab fragment; source: ExpiCHO, purified (Talon resin, S200 SEC)
B16: GAR03 Fab (Fab, V domains shown)
VH: QVQLVQSGAEVKKPGASVKVSCKASGYTFSSYDINWVRQAPGQGLEWMGWMSPNSGNTGYAQKFQGRVTMTRSTSMSTAYMELSSLRSEDTAVYFCARMSSSLTNYLDYWGQGTLVTVSS
VL: SYVLTQPPSVAVAPGQTARIRCGENDIGSKNVHWYQQKSGQAPVLVVYDDSDRPSGIPERFSGSNSGNTATLTISRVEAGDEADYYCQVWDSTGDHPDVVFGGGTKLTVL
notes: also called GAR03 antibody Fab; source: ExpiCHO, purified (Talon resin, S200 SEC)
B17: GAR12, human IgG1 monoclonal antibody (antibody, V domains shown)
VH: B15 VH
VL: B15 VL
notes: source: ExpiCHO, purified (Protein G resin)
B18: S2H97, class 5 monoclonal antibody (antibody, V domains shown)
VH: QVRLVQSGAEVKKSGESLKISCKGSGYSFTSYWIGWVRQMPGKGLEWMGIIYPGDSDTRYSPSFQGQVTISADKSISTVYLQWSSLKASDTAMYYCARQWSHYTYDYYYWGQGTLVTISS
VL: QSVLTQPASVSGSPGQSITISCTGISSDVGGYNSVSWYQQHPGKAPKLMIYDVTNRPSGVSNRFSGSKSGNTASLTISGLQAEDEADYYCSSYTSSSTPPYVFGTGTKVSVL
B19: GAR05, human IgG1 monoclonal antibody (antibody, V domains shown)
VH: EVQLVQSGGDLVQPGGSLRLSCAVSGFTVSRNYMTWVRQAPGRGLEWVSLIYPGGSAFYADSVKGRFTISRDNSKNTLYLQMNSLRVEDTAVYYCARDPVSTGHYHDSDYWGQGTLVTVSS
VL: DIQMTQSPSALSASVGDRVTITCQASQDINKFLNWYQQKPGKAPKLLIYDASNLETGVPSRFSGGGSGTDFTFTISSLQPEDIATYYCHQYDNLPRTFGQGTKVELK
notes: as for B17

These binders were tested against bat RaTG12-CoV RBD (Bat coronavirus RaTG13 (printed as …, UniProt A0ABF7PLN6)) (assay: not given). Details: not given.
B1: binds. B2: binds. B3: binds. B4: binds. B5: binds. B6: binds.

What follows are binders tested against T1, SARS-CoV-2 RBD (residues 319-541), ancestral strain (SARS-CoV-2, UniProt P0DTC2) (assay: not given). Details: not given.
B1: binds. B7: binds. B2: binds. B8: binds. B3: binds. B9: binds. B4: binds. B10: binds. B11: binds. B5: binds. B6: binds. B12: binds. B13: binds.

The binders below were run against SARS-CoV-1 RBD (SARS-CoV (SARS-CoV-1), isolate not …, UniProt P59594) (assay: not given). Details: not given.
B1: binds. B2: binds. B3: binds. B4: binds. B5: binds. B6: binds.

What follows are binders tested against T2, C-terminally His-tagged SARS-CoV-2 RBD (residues 333-528) (SARS-CoV-2, UniProt P0DTC2) (assay: crystal structure). Details: both partners purified.
T2 construct: source: expressed and purified as for the other RBDs (Expi293, Talon resin)
B14: binds. B15: binds. B16: binds.

These binders were tested against T1, SARS-CoV-2 RBD (residues 319-541), … (assay: BLI). Details: both partners purified.
B17: binds. B18: binds. Work on B19 yielded a Kd of 0.54 nM.

From paper PMC9907207 (Nature Communications, 2023)
